Literature values, collected in patent publication US20210077665A1, “METHODS AND DEVICES FOR LYMPHATIC TARGETING” (priority 2005, published 2021).

Tests used:
[1] = at 44 h; pleural injection

Compound | uptake in mediastinal nodes [1] [%] | IC50 (H460 lung cancer cells) [nM]
111In-avidin: 111In labeled avidin injected in the pleural space (literature) | 3.3 | 
CC(=O)O[C@H]1C(=O)[C@@]2(C)[C@H]([C@H](OC(=O)c3ccccc3)[C@]3(O)C[C@H](OC(=O)[C@H](O)[C@@H](NC(=O)c4ccccc4)c4ccccc4)C(C)=C1C3(C)C)[C@]1(OC(C)=O)CO[C@@H]1C[C@@H]2O [Paclitaxel, paclitaxel] |  | 5
